Measured values from US7745575B1 (Cellpep Pharma Inc., priority 2004, dated 2010).
Bridge positions count the residues as written; N and C are the ends. Ends that are not written are not given here. Peptide text beside a SMILES is read from it.

Legend:
mKv1.3 [1] = biological target: mKv1.3 (Mus musculus, UniProt P16390); experiment: patch-clamp whole-cell recording, K+ current block; assay type: cell-based
Method: (§1) Electrophysiological experiments were carried out at 22-24° C. using the patch-clamp whole-cell recording mode. Cells were bathed with mammalian Ringer's solution (in mM): 160 NaCl, 4.5 KCl, 2 CaCl2, 1 MgCl2, and 10 HEPES (pH 7.4 with NaOH), with an osmolarity of 290-320 mOsm. […] A syringe-driven perfusion device was used to exchange the external recording bath solution. Two internal pipette solutions were used, one for measuring voltage-gated K^+ currents that contained (in mM): 155 KF, 2 MgCl2, 10 HEPES, and 10 EGTA (pH 7.2 with KOH), with an osmolarity of 290-320 mOsm and another for measuring Ca^2+-activated K^+ currents that contained (in mM): 135 K-aspartate, 8.7 CaCl2, 2 MgCl2, 10 EGTA, 10 HEPES (pH 7.2 with KOH), with an osmolarity of 290-320 mOsm. A free [Ca^2+]i of 1 μM was calculated. All currents through voltage-gated K^+ channels were elicited by 200 ms depolarising voltage steps from −80 to +40 mV. Potassium currents through KCa1.1, KCa2.1 and KCa3.1 were elicited by 1 μM internal [Ca^2+]i and 400 ms voltage ramps from −120 to 0 mV (for KCa3.1 channel and KCa1.1 channel) and from −120 to +40 mV (for KCa2.1 channel). Electrodes were pulled from glass capillaries (Science Products, Germany), and fire-polished to resistances of 2.5-5 MΩ. Membrane currents were measured with an EPC-9 or EPC-10 patch-clamp amplifier (HEKA Elektronik, Lambrecht, Germany) interfaced to a Macintosh computer running acquisition and analysis software (Pulse and PulseFit). When voltage-gated K^+ currents were measured, the capacitive and leak currents were subtracted using a P/10 procedure. Series resistance compensation (>80%) was used for currents above 2 nA. The holding potential was −80 mV in all experiments.

mKv1.1 [2] = biological target: mKv1.1 (Mus musculus, UniProt P16388); experiment: patch-clamp whole-cell recording, K+ current block; assay type: cell-based
Method: as §1

hIK1 (KCa3.1) = hIK1 (KCa3.1) (Homo sapiens, UniProt O15554); experiment: patch-clamp whole-cell recording, Ca2+-activated K+ current block; assay type: cell-based
Method: as §1

[3] = toxicity in vivo, LD50 after intracerebroventricular injection; settings: mouse, icv or intrathecal, 20 g C57/BL6 mice
Method: Groups of six to eight mice per dose were injected with 5 μl peptide solution containing 0.1% (w/v) bovine serum albumin and 0.9% (w/v) NaCl. The LD50 values are set out in Table 5.

hKv3.2 [4] = biological target: T1, hKv3.2 (Homo sapiens, UniProt Q96PR1); experiment: patch-clamp whole-cell recording, K+ current block; assay type: cell-based
T1 sequence (Q96PR1 1-638): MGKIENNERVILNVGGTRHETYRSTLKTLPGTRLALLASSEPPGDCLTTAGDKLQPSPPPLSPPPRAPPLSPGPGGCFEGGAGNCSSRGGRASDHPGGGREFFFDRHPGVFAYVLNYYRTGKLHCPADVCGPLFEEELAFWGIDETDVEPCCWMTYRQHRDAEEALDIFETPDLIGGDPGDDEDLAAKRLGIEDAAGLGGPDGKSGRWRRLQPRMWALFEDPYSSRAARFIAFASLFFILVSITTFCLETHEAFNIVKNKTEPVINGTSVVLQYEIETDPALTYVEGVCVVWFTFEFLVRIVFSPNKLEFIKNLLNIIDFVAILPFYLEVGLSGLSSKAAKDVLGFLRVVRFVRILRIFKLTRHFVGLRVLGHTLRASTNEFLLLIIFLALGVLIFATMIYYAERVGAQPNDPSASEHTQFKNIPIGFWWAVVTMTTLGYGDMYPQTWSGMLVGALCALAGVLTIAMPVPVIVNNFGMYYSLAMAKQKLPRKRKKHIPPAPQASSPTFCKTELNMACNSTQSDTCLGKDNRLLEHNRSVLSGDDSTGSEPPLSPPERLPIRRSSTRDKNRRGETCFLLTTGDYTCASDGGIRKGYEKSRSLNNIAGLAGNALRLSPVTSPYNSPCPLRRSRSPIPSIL
Method: as §1

[5] = biological target: hKv1.2 (human (only by the printed prefix h)) (UniProt P16389)
[6] = biological target: hKv3.2 (human (only by the printed prefix h)) (UniProt Q96PR1)
[7] = biological target: mKv1.3 (mouse (only by the printed prefix m)) (UniProt P16390)
[8] = biological target: hIK1 (human (only by the printed prefix h)) (UniProt O15554)
[9] = biological target: mKv1.1 (mouse (only by the printed prefix m)) (UniProt P16388)
hKv3.2 [10] = biological target: T2, hKv3.2 (human (only by the printed prefix h), UniProt Q96PR1); experiment: cell-based or functional assay
T2 sequence: T1 sequence (Q96PR1 1-638)

hIK1 = hIK1 (human (only by the printed prefix h), UniProt O15554); experiment: cell-based or functional assay
mKv1.1 [11] = biological target: mKv1.1 (mouse (only by the printed prefix m), UniProt P16388); experiment: cell-based or functional assay
mKv1.3 [12] = biological target: mKv1.3 (mouse (only by the printed prefix m), UniProt P16390); experiment: cell-based or functional assay
hKv1.2 = hKv1.2 (human (only by the printed prefix h), UniProt P16389); experiment: cell-based or functional assay

Sequence of mKv1.3 (Mus musculus, UniProt P16390) (P16390 whole entry, the tested form may be a part): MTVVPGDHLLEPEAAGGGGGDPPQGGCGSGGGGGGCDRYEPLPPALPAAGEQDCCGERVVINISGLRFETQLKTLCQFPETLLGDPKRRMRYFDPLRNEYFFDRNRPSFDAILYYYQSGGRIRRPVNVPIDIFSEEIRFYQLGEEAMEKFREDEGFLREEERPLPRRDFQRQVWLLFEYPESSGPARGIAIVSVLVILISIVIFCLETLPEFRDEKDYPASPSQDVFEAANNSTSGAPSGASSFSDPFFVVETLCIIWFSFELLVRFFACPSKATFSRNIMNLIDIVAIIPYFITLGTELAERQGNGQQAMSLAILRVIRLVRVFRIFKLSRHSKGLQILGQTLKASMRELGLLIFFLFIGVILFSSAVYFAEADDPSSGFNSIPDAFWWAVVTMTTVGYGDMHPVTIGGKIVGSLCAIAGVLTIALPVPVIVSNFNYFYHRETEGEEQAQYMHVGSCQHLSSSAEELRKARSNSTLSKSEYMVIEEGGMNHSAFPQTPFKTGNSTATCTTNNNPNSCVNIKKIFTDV
Sequence of hIK1 (KCa3.1) (O15554 whole entry): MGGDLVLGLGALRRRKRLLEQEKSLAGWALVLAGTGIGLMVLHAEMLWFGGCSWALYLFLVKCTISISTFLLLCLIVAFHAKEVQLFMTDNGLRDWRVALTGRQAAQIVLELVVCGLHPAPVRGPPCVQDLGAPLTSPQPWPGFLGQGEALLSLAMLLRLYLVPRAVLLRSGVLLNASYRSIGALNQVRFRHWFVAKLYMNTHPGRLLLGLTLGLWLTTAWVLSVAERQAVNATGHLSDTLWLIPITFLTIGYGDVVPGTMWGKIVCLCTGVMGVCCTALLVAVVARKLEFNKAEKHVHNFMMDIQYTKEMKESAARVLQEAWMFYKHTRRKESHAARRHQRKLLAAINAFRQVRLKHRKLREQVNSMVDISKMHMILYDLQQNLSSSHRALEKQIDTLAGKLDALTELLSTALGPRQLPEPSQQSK
Sequence of mKv1.1 (Mus musculus, UniProt P16388) (P16388 whole entry): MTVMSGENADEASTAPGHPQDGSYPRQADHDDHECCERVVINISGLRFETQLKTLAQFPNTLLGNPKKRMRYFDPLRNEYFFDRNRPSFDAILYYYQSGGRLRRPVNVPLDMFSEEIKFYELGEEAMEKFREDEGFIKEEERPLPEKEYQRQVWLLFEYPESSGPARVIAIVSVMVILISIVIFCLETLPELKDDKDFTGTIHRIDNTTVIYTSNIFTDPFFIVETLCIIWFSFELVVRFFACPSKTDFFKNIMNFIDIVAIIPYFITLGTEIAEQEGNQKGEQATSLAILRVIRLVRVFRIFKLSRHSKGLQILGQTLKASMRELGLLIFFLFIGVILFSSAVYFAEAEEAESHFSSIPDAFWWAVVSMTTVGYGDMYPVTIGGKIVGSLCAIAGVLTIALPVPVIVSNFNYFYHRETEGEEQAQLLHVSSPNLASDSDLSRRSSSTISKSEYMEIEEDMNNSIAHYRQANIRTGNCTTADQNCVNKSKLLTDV

Molecule: CC[C@H](C)[C@@H]1NC(=O)[C@H](CCCCN)NC(=O)[C@@H](NC(=O)[C@H](CCCCN)NC(=O)[C@@H](NC(=O)[C@H](CC(N)=O)NC(=O)[C@@H](NC(=O)[C@@H](NC(=O)[C@@H](NC(=O)CN)C(C)C)[C@@H](C)CC)[C@@H](C)CC)C(C)C)CSSC[C@@H]2NC(=O)[C@H](CCCCN)NC(=O)CNC(=O)[C@H](Cc3ccccc3)NC(=O)[C@H](CCCNC(=N)N)NC(=O)[C@H](CCSC)NC(=O)CNC(=O)[C@H](C)NC(=O)[C@H](CC(=O)O)NC(=O)[C@H](CCCCN)NC(=O)[C@@H]3CSSC[C@@H](C(=O)N[C@H](C(=O)N4CCC[C@H]4C(=O)N[C@@H](CCCCN)C(N)=O)[C@@H](C)O)NC(=O)[C@H](Cc4c[nH]cn4)NC(=O)[C@H](CSSC[C@H](NC(=O)[C@H](CCC(N)=O)NC(=O)[C@H](CCCNC(=N)N)NC(=O)[C@H](CO)NC1=O)C(=O)N[C@@H](CC(C)C)C(=O)N[C@@H](CCCCN)C(=O)N1CCC[C@H]1C(=O)N3)NC(=O)[C@H](CCCCN)NC(=O)CNC(=O)[C@H](CC(N)=O)NC(=O)[C@H](CCSC)NC2=O (H-GVIINVKCKISRQCLKPCKDAGMRFGKCMNGKCHCTPK-NH2; disulfide 8-28, 14-33, 18-35)
- IC50 (mKv1.3 [1]): 0.075 ± 0.006 nM
- IC50 (mKv1.1 [2]): 0.36 ± 0.04 nM
- IC50 (hIK1 (KCa3.1)): > 1000 nM
- LD50 [3]: 2.25 µg/kg

Molecule: CC[C@H](C)[C@@H]1NC(=O)[C@H](CCCCN)NC(=O)[C@@H](NC(=O)[C@H](CCCCN)NC(=O)[C@@H](NC(=O)[C@H](CC(N)=O)NC(=O)[C@@H](NC(=O)[C@@H](NC(=O)[C@@H](NC(=O)CN)C(C)C)[C@@H](C)CC)[C@@H](C)CC)C(C)C)CSSC[C@@H]2NC(=O)[C@H](CCCCN)NC(=O)CNC(=O)[C@H](Cc3ccccc3)NC(=O)[C@H](CCCNC(=N)N)NC(=O)[C@H](CCSC)NC(=O)CNC(=O)[C@H](C)NC(=O)[C@H](CC(=O)O)NC(=O)[C@H](CCCCN)NC(=O)[C@@H]3CSSC[C@@H](C(=O)N[C@H](C(=O)N4CCC[C@H]4C(=O)N[C@@H](CCCCN)C(=O)O)[C@@H](C)O)NC(=O)[C@H](Cc4c[nH]cn4)NC(=O)[C@H](CSSC[C@H](NC(=O)[C@H](CCC(N)=O)NC(=O)[C@H](CCCNC(=N)N)NC(=O)[C@H](CO)NC1=O)C(=O)N[C@@H](CC(C)C)C(=O)N[C@@H](CCCCN)C(=O)N1CCC[C@H]1C(=O)N3)NC(=O)[C@H](CCCCN)NC(=O)CNC(=O)[C@H](CC(N)=O)NC(=O)[C@H](CCSC)NC2=O (H-GVIINVKCKISRQCLKPCKDAGMRFGKCMNGKCHCTPK-OH; disulfide 8-28, 14-33, 18-35)
- activity on Kv1.3 channel (in words) (mKv1.3 [1]): the most potent Kv1.3 channel blocker characterized so far
- potency on the Kv1.3 channel relative to OsK1 (mKv1.3 [1]; compared with OsK1): about five times more potent
- IC50 (hKv3.2 [4]): > 1000 nM
- activity on IK1 (in words) (hIK1 (KCa3.1)): shares the same activity on IK1
- LD50 [3]: 2.5 µg/kg

Molecule: CC[C@H](C)[C@@H]1NC(=O)[C@H](CCCCN)NC(=O)[C@@H](NC(=O)[C@H](CCCCN)NC(=O)[C@@H](NC(=O)[C@H](CC(N)=O)NC(=O)[C@@H](NC(=O)[C@H](CCCCN)NC(=O)[C@@H](NC(=O)CN)C(C)C)[C@@H](C)CC)C(C)C)CSSC[C@@H]2NC(=O)[C@H](CCCCN)NC(=O)CNC(=O)[C@H](Cc3ccccc3)NC(=O)[C@H](CCCNC(=N)N)NC(=O)[C@H](CCSC)NC(=O)CNC(=O)[C@H](C)NC(=O)[C@H](CC(=O)O)NC(=O)[C@H](CCCCN)NC(=O)[C@@H]3CSSC[C@@H](C(=O)N[C@H](C(=O)N4CCC[C@H]4C(=O)N[C@@H](CCCCN)C(N)=O)[C@@H](C)O)NC(=O)[C@H](Cc4c[nH]cn4)NC(=O)[C@H](CSSC[C@H](NC(=O)[C@H](CCC(N)=O)NC(=O)[C@H](CCCNC(=N)N)NC(=O)[C@H](CO)NC1=O)C(=O)N[C@@H](CC(C)C)C(=O)N[C@@H](CCCCN)C(=O)N1CCC[C@H]1C(=O)N3)NC(=O)[C@H](CCCCN)NC(=O)CNC(=O)[C@H](CC(N)=O)NC(=O)[C@H](CCSC)NC2=O (H-GVKINVKCKISRQCLKPCKDAGMRFGKCMNGKCHCTPK-NH2; disulfide 8-28, 14-33, 18-35)
- IC50 (hKv3.2 [4]): > 1000 nM
- IC50 (hIK1 (KCa3.1)): > 1000 nM
- LD50 [3]: 2.25 µg/kg

Molecule: CC[C@H](C)[C@@H]1NC(=O)[C@H](CCCCN)NC(=O)[C@@H](NC(=O)[C@H](CCCCN)NC(=O)[C@@H](NC(=O)[C@H](CC(N)=O)NC(=O)[C@@H](NC(=O)[C@@H](NC(=O)[C@@H](NC(=O)CNC(C)=O)C(C)C)[C@@H](C)CC)[C@@H](C)CC)C(C)C)CSSC[C@@H]2NC(=O)[C@H](CCCCN)NC(=O)CNC(=O)[C@H](Cc3ccccc3)NC(=O)[C@H](CCCNC(=N)N)NC(=O)[C@H](CCSC)NC(=O)CNC(=O)[C@H](C)NC(=O)[C@H](CCCCN)NC(=O)[C@H](CCCCN)NC(=O)[C@@H]3CSSC[C@@H](C(=O)N[C@H](C(=O)N4CCC[C@H]4C(=O)N[C@@H](CCCCN)C(N)=O)[C@@H](C)O)NC(=O)[C@H](Cc4c[nH]cn4)NC(=O)[C@H](CSSC[C@H](NC(=O)[C@H](CCC(N)=O)NC(=O)[C@H](CCCNC(=N)N)NC(=O)[C@H](CO)NC1=O)C(=O)N[C@@H](CC(C)C)C(=O)N[C@@H](CCC(=O)O)C(=O)N1CCC[C@H]1C(=O)N3)NC(=O)[C@H](CCCCN)NC(=O)CNC(=O)[C@H](CC(N)=O)NC(=O)[C@H](CCSC)NC2=O [Ac-OsK1-NH2]
- IC50 (hKv3.2 [4]): > 1000 nM
- LD50 [3]: 11 µg/kg

Molecule: [A^34]-OsK1 (peptide)
- ID50 [5]: 65 nM
- ID50 [6]: > 1000 nM
- ID50 [7]: 0.034 nM
- ID50 [8]: > 1000 nM
- ID50 [9]: 15.8 nM

Molecule: VIINVKCKISRQCLEPCKKAGMRFGKCMNGKCHCTPK-NH2 (ends and bridges not checked) [[Δ^1]-OsK1-NH2]
- ID50 (hKv3.2 [10]): > 1000 nM
- ID50 (hIK1): 620 nM
- ID50 (mKv1.1 [11]): 2.06 nM
- ID50 (mKv1.3 [12]): 0.038 nM
- ID50 (hKv1.2): 85 nM

Molecule: GVIINVKCKISRQCLKPCKKAGMRFGKCMNGKCHCTPK (ends and bridges not checked; cysteine pairing not given here) [[K^16]-OsK1]
- ID50 (hIK1): 151 nM
- ID50 (mKv1.1 [11]): 0.63 nM
- ID50 (mKv1.3 [12]): 0.067 nM
- ID50 (hKv1.2): 5.23 nM

Molecule: GVIINVKCKISRQCLEPCKDAGMRFGKCMNGKCHCTPK (ends and bridges not checked; cysteine pairing not given here) [[D^20]-OsK1]
- ID50 (hIK1): 716 nM
- ID50 (mKv1.1 [11]): 2.95 nM
- ID50 (mKv1.3 [12]): 0.037 nM
- ID50 (hKv1.2): 77.8 nM
